From paper PMC8303780, “Mutational Analysis of Redβ Single Strand Annealing Protein: Roles of the 14 Lysine Residues in DNA Binding and Recombination In Vivo” come the findings set out here.

Common to all, as to test: fluorescence anisotropy
Conditions in all cases: Anisotropy: 50 mM Tris-HCl pH 7.5, 1 mM DTT, 0.1 mg/mL BSA, 10 nM FAM48, 23 °C (Kd per monomer), gel assay: 10 µM Redβ, 50 µM nt of each oligo, PBS, 37 °C
For orientation: Fluorescence polarisation rises when a labelled molecule tumbles more slowly, as on binding a larger partner.

The target of one data set is T1, Redβ WT (bacteriophage λ, UniProt P03698 1-261).
T1 sequence: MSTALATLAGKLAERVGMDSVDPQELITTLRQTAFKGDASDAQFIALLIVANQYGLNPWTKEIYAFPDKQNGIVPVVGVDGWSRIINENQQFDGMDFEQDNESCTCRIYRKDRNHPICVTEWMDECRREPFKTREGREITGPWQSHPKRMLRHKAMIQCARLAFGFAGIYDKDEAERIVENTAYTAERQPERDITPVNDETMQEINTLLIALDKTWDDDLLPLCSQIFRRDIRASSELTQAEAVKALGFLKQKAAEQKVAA

In data set [1] the target is T2, Redβ K111A K111A (bacteriophage λ) (UniProt P03698).
T2 sequence: T1 sequence with K111A

The target in data set [2] is T3, Redβ K11A K11A (bacteriophage λ) (UniProt P03698).
T3 sequence: T1 sequence with K11A

Data set [3] concerns the target T4, Redβ K132A K132A (bacteriophage λ) (UniProt P03698).
T4 sequence: T1 sequence with K132A

The target in data set [4] is T5, Redβ K148A K148A (bacteriophage λ) (UniProt P03698).
T5 sequence: T1 sequence with K148A

Data set [5] concerns the target T6, Redβ K172A K172A (bacteriophage λ) (UniProt P03698).
T6 sequence: T1 sequence with K172A

Data set [6] has as its target T7, Redβ K245A K245A (bacteriophage λ) (UniProt P03698).
T7 sequence: T1 sequence with K245A

Data set [7] deals with T8, Redβ K251A K251A (bacteriophage λ) (UniProt P03698).
T8 sequence: T1 sequence with K251A

Data set [8] addresses T9, Redβ K61A K61A (bacteriophage λ) (UniProt P03698).
T9 sequence: T1 sequence with K61A

Positions count from the first letter of the chain named.

On to FAM48 48-mer ssDNA, for which the dissociation constant Kd was 110 nM with Redβ WT; 2400 nM in data set [1]; 230 nM in data set [2]; 1770 nM in data set [3]; 14100 nM in data set [4]; 2600 nM in [5]. The Kd in [6] came out at 160 nM; in [7], 190 nM; in data set [8], 390 nM.

One may read the Kd as the free concentration of one partner at which half of the binding sites on the other are occupied at equilibrium, for simple one-to-one binding. Low values mean tighter binding, high ones weaker binding.
